# Laboratory results from US20220251191A1 (ARCH ONCOLOGY, published 2022).
# Changes are numbered by the printed parent chain.
# T1: recombinant biotin tagged IL-7 Receptor-alpha (IL-7Rα) (Acrobiosystems #IL-7-H82F8) (UniProt P16871 21-236, biotin tag (site not stated))
# T1 construct: Bought reagent; also called IL-7Ra; α receptor
# T1 sequence (looked up): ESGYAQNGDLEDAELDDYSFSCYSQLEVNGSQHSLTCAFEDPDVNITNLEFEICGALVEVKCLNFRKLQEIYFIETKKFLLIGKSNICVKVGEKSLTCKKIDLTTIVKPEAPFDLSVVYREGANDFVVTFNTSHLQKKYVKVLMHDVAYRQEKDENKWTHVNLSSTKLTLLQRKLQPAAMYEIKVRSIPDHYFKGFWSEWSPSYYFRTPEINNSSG
# T2: IL-7Rα with 20 nM receptor γ (UniProt P16871 21-236; P31785 23-262, biotin tag (site not stated))
# T2 construct: Mixture of IL-7Rα and soluble receptor γ in the TR-FRET assay; The fit treated the receptor chains as one combined unit; also called IL-7Ra with the γ subunit; IL-7 with γ
# T2 sequence (looked up) 1: T1 sequence (looked up)
# T2 sequence (looked up) 2: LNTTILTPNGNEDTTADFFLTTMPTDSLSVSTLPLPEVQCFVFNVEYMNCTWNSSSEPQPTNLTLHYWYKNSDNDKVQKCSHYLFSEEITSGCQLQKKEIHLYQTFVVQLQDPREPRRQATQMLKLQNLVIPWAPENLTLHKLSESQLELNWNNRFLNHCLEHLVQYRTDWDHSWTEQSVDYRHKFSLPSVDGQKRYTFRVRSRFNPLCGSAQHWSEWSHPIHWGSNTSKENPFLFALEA
# T3: IL-7Rα with 20 nM receptor γ (UniProt P16871 21-236; P31785 23-262, biotin tag (site not stated))
# T3 chain 1: T1 sequence (looked up)
# T3 chain 2: T2 sequence (looked up) 2
# B1: IL-7 WT (in-house with His tag) (ligand)
# chain: MDCDIEGKDGKQYESVLMVSIDQLLDSMKEIGSNCLNNEFNFFKRHICDANKEGMFLFRAARKLRQFLKMNSTGDFDLHLLKVSEGTTILLNCTGQVKGRKPAALGEAQPTKSLEENKSLKEQKKLNDLCFLKRLLQEIKTCWNKILMGTKEHENLYFQGHHHHHH
# notes: also called IL-7 WT (in-house-His 6); in-house IL-7
# B2: IL-7 S1 with C-terminal His-tag (ligand)
# chain: B1 chain with K11I
# notes: also called IL-7 mutant S1; S1 mutant
# B3: IL-7 WT (commercial-sourced) (ligand)
# chain: MDCDIEGKDGKQYESVLMVSIDQLLDSMKEIGSNCLNNEFNFFKRHICDANKEGMFLFRAARKLRQFLKMNSTGDFDLHLLKVSEGTTILLNCTGQVKGRKPAALGEAQPTKSLEENKSLKEQKKLNDLCFLKRLLQEIKTCWNKILMGTKEH
# notes: also called commercially obtained IL-7; commercial IL-7
# Assays:
# [1] = molecular target: T1, recombinant biotin tagged IL-7 …; experiment: TR-FRET ligand-receptor binding assay, equilibrium fit
# Method: (§1) IL-7 binding affinity was determined by measuring the TR-FRET fluorescence signal at a range of concentrations of recombinant IL-7 and IL-7 Receptor-alpha (IL-7Rα). In a buffer of PBS (pH 7.4)+0.05% BSA and 0.005% Tween-20, make 4×stocks of 160 nM TR-FRET acceptor linked α6-his IgG (Perkin Elmer #TRF0105-M), 80 nM TR-FRET donor linked streptavidin (Perkin Elmer #AD0062), recombinant 6-his tagged IL-7 wildtype or mutant variant (at concentrations up to 160 nM), and recombinant biotin tagged IL-7Rα (Acrobiosystems #IL-7-H82F8) (at concentrations up to 80 nM). For each sample to be tested, 5 μL of the 4× stock of a6-his IgG linked acceptor is mixed with 5 μL of a 4×working stock of IL-7. Separately, for each sample, 5 μL of 4×TR-FRET donor linked to streptavidin is mixed with 5 μL of the 4×working stock of recombinant IL-7Rα linked to biotin. Mixtures were incubated at room temperature for 30 minutes during which the 10 μL of a6-his linked acceptor/IL-7 mix was distributed into indicated wells in 384-well shallow black ProxiPlate (Perkin Elmer #6008260) and kept covered from light. After the 30 min incubation, 10 μL of streptavidin linked donor/IL-7Ra mixture was placed in designated wells containing designated concentration of IL-7 plus acceptor. Plates were immediately spun at 750 rpm for 30 sec and then immediately placed in PHERAstar plate reader (BMG Labtech) to read TR-FRET signal. Continuously over the next 30 minutes, fluorescence for donor signal (337 nm excitation/620 nm emission) and acceptor signal (337 nm excitation/655 nm emission) are read. The TR-FRET binding signal is determined by taking the ratio of acceptor signal over donor signal and multiplying by 10,000. Equilibrium is defined at the time point where the readings plateau before fluorescence activity begins to decay. Equilibrium values are then fit to a standard equilibrium equation assuming single site binding using the graphing program GraFit (Erithacus Software).
# [2] = molecular target: T2, IL-7Rα with 20 nM receptor γ; experiment: TR-FRET, with 20 nM receptor γ against without (FIG. 5)
# Method: as §1, with “Mixtures were incubated at room temperature for 30 minutes during which the 10 μL of a6-his linked acceptor/IL-7 mix was distributed into indicated wells in 384-well shallow black ProxiPlate (Perkin Elmer #6008260) and kept covered from light. After the 30 min incubation, 10 μL of streptavidin linked donor/IL-7Ra mixture was placed in designated wells containing designated concentration of IL-7 plus acceptor.” left out, “Equilibrium values are then fit to a standard equilibrium equation assuming single site binding using the graphing program GraFit (Erithacus Software).” left out
# [3] = molecular target: T1, recombinant biotin tagged IL-7 …; experiment: TR-FRET, Expt. 2
# Method: as §1, with “Mixtures were incubated at room temperature for 30 minutes during which the 10 μL of a6-his linked acceptor/IL-7 mix was distributed into indicated wells in 384-well shallow black ProxiPlate (Perkin Elmer #6008260) and kept covered from light. After the 30 min incubation, 10 μL of streptavidin linked donor/IL-7Ra mixture was placed in designated wells containing designated concentration of IL-7 plus acceptor.” left out, “Equilibrium values are then fit to a standard equilibrium equation assuming single site binding using the graphing program GraFit (Erithacus Software).” left out
# [4] = molecular target: T1, recombinant biotin tagged IL-7 …; experiment: TR-FRET, His-tagged IL-7 and biotin IL-7Rα, equilibrium fit (FIG. 3)
# Method: as §1, with “Mixtures were incubated at room temperature for 30 minutes during which the 10 μL of a6-his linked acceptor/IL-7 mix was distributed into indicated wells in 384-well shallow black ProxiPlate (Perkin Elmer #6008260) and kept covered from light. After the 30 min incubation, 10 μL of streptavidin linked donor/IL-7Ra mixture was placed in designated wells containing designated concentration of IL-7 plus acceptor.” left out, “Equilibrium values are then fit to a standard equilibrium equation assuming single site binding using the graphing program GraFit (Erithacus Software).” left out
# [5] = molecular target: T1, recombinant biotin tagged IL-7 …; experiment: TR-FRET, Expt. 1
# Method: as §1, with “Mixtures were incubated at room temperature for 30 minutes during which the 10 μL of a6-his linked acceptor/IL-7 mix was distributed into indicated wells in 384-well shallow black ProxiPlate (Perkin Elmer #6008260) and kept covered from light. After the 30 min incubation, 10 μL of streptavidin linked donor/IL-7Ra mixture was placed in designated wells containing designated concentration of IL-7 plus acceptor.” left out, “Equilibrium values are then fit to a standard equilibrium equation assuming single site binding using the graphing program GraFit (Erithacus Software).” left out
# [6] = molecular target: T1, recombinant biotin tagged IL-7 …; experiment: TR-FRET, previous analyses
# [7] = molecular target: T3, IL-7Rα with 20 nM receptor γ; experiment: TR-FRET; with gamma
# [8] = molecular target: T1, recombinant biotin tagged IL-7 …; experiment: TR-FRET, earlier analyses
# [9] = molecular target: T1, recombinant biotin tagged IL-7 …; experiment: TR-FRET, only the α receptor present (FIG. 4)
# Method: as §1, with “Mixtures were incubated at room temperature for 30 minutes during which the 10 μL of a6-his linked acceptor/IL-7 mix was distributed into indicated wells in 384-well shallow black ProxiPlate (Perkin Elmer #6008260) and kept covered from light. After the 30 min incubation, 10 μL of streptavidin linked donor/IL-7Ra mixture was placed in designated wells containing designated concentration of IL-7 plus acceptor.” left out, “Equilibrium values are then fit to a standard equilibrium equation assuming single site binding using the graphing program GraFit (Erithacus Software).” left out
# [10] = molecular target: T1, recombinant biotin tagged IL-7 …; experiment: TR-FRET, without receptor γ (FIG. 5)
# Method: as §1, with “Mixtures were incubated at room temperature for 30 minutes during which the 10 μL of a6-his linked acceptor/IL-7 mix was distributed into indicated wells in 384-well shallow black ProxiPlate (Perkin Elmer #6008260) and kept covered from light. After the 30 min incubation, 10 μL of streptavidin linked donor/IL-7Ra mixture was placed in designated wells containing designated concentration of IL-7 plus acceptor.” left out, “Equilibrium values are then fit to a standard equilibrium equation assuming single site binding using the graphing program GraFit (Erithacus Software).” left out
# [11] = molecular target: T1, recombinant biotin tagged IL-7 …; experiment: binding analysis with two Kd parameters, in-house against commercially obtained IL-7 (taken to be TR-FRET on IL-7Rα)
Binder,Kd [1] [nM],fold increase in apparent affinity with receptor γ against without [2] [fold],Kd [3] [nM],Kd [4] [nM],Kd [5] [nM],Kd [6] [nM],Kd [7] [nM],Kd [8] [nM],Kd [9] [nM],Kd [10] [nM],fold higher Kd than in-house IL-7 [11] [fold]
B1,17,5,20,5.44,14,6,2.75,6.6,20.2,12.1,
B2,55,,72,,37,,,,34.8,,
B3,21.7,,,,,,,,,,~4
